Results on five substances are retold here after paper PMC7042713.

Experiment in all cases: SEC-MALS
A general note: SEC sorts molecules by how far they enter the pores of the column.

One assay deals with AtSOK1 DIX domain D78A. Conditions: 2mg/ml D78A; parent value is 2mg/ml wt; calculated monomer mass of AtSOK1 DIX 25 kD (panel A); parent: 87.
For the next assay, the target named is BhDIX K82A. The conditions noted are these: monomer mass of BhDIX printed in panel as 24kD; parent: 90.
Another assay deals with BhDIX L8A. The conditions noted are these: parent: est. 9.0e4; read off a plot.
Another assay addresses BhDIX Y10A. Conditions: parent: est. 9.0e4; read off a plot.
Another assay addresses CpDIX D67A. The conditions noted are these: monomer mass of CpDIX printed in panel as 22kD; parent: 90.

For “AtSOK1 DIX domain (Arabidopsis thaliana SOSEKI1), wild type D78A”, in the assay with AtSOK1 DIX domain D78A, the other: observed molar mass (SEC-MALS, self-association) was 25 kD.

In the case of Blastocystis hominis DIX domain K82A, the other: observed molar mass (SEC-MALS, self-association) in the assay with BhDIX K82A is 23 kD.

Turning to Blastocystis hominis DIX domain L8A, the other: observed molar mass (SEC-MALS, self-association) in the assay with BhDIX L8A turned out to be 55000 g/mol.

For the substance Blastocystis hominis DIX domain Y10A, the other: observed molar mass (SEC-MALS, self-association) with BhDIX Y10A is 35000 g/mol.

In the case of Cryptosporidium parvum DIX domain D67A, the other: observed molar mass (SEC-MALS, self-association) with CpDIX D67A stood at 22 kD.
